According to patent US20260108618A1:

How the values were obtained:
Assay in all cases: cell-based or functional assay
[1] = biological target: neuraminidase of influenza A/Hong Kong/1/1968 (H3N2) (Influenza A virus) (UniProt Q91MA2)
[2] = biological target: Neuraminidase of influenza A/Hong Kong/2671/2019 (H3N2) (influenza A virus A/Hong Kong/2671/2019 (H3N2))
[3] = biological target: Neuraminidase of influenza B/Washington/02/2019 (Victoria) (influenza B virus B/Washington/02/2019 (Victoria))
[4] = biological target: Neuraminidase of influenza B/Phuket/3073/2013 (Yamagata) (influenza B virus B/Phuket/3073/2013 (Yamagata))
[5] = biological target: neuraminidase of influenza B/Malaysia/2506/2004 (Victoria) (Influenza B virus)
[6] = biological target: Neuraminidase of influenza A/Hawaii/70/2019 (H1N1)pdm09 (influenza A virus A/Hawaii/70/2019 (H1N1)pdm09)
[7] = biological target: neuraminidase of influenza B/Florida/4/2006 (Yamagata) (Influenza B virus)
[8] = biological target: neuraminidase of influenza A/CA/7/2009 (H1N1pdm) (Influenza A virus)

Chain of neuraminidase of influenza A/Hong Kong/1/1968 (H3N2) (Influenza A virus) (Q91MA2 whole entry): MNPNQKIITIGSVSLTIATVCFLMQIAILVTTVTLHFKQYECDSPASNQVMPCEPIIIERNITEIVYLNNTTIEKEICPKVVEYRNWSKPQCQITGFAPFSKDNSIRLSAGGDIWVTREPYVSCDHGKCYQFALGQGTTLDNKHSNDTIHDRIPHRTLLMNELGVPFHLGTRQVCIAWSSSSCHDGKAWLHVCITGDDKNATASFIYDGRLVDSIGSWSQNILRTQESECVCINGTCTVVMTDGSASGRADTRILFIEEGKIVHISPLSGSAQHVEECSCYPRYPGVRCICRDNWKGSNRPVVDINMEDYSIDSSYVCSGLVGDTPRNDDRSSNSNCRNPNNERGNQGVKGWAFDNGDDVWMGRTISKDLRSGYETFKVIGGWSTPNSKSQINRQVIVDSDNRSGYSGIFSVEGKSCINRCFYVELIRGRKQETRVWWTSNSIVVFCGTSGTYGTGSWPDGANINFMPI

hIgG1 Fc (from UniProt P01857 84-329)
> 1000 nM: enzyme-linked lectin assay (ELLA) IC50, fetuin substrate, virus [1] | enzyme-linked lectin assay (ELLA) (IC50), fetuin substrate, live virus [2] | enzyme-linked lectin assay (ELLA) (IC50), fetuin substrate, live virus [3] | enzyme-linked lectin assay (ELLA) (IC50), fetuin substrate, live virus [4] | enzyme-linked lectin assay (ELLA) IC50, fetuin substrate, virus [5] | enzyme-linked lectin assay (ELLA) (IC50), fetuin substrate, live virus [6] | enzyme-linked lectin assay (ELLA) IC50, fetuin substrate, virus [7] | enzyme-linked lectin assay (ELLA) IC50, fetuin substrate, virus [8]
